Measurements as given in patent publication US9567577B2, “Expression vector comprising a polynucleotide encoding a modified glutamine synthetase and a method for preparing a target protein employing the same” (ARES TRADING S.A., priority 2012, dated 2017).

Test system: CHO K-1 cells
Test: TNFR-Fc expression level by ELISA of culture broth of CHO K-1 cells transfected with the expression vectors
Assay type: cell-based
Settings: inferred from TNFR-Fc expression under MSX
Procedure: In order to compare the productivity of TNFR-Fc fusion protein between the GS and DHFR gene expression systems, each of the expression vectors constructed in Example 4 was introduced into CHO K-1 cells so as to prepare each transformant.
In detail, CHO K-1 cells were cultured in a DMEM/F12 medium supplemented with 10% FBS, and 3 to 4×10^5 cells/well were inoculated into a 6 well-plate, followed by cultivation overnight. When the cells reached 80 to 90% confluence, each of the expression vectors was introduced thereto.
To achieve this, 4 μg of each of the expression vectors constructed in Example 4 and 250 μl of Opti-MEM were mixed with each other, and separately, 10 μl of Lipofectamine 2000 (Invitrogen) and 250 μl of Opti-MEM were mixed with each other. Then, each mixture was left at room temperature for 5 minutes. Subsequently, the mixtures were mixed with each other, and left at room temperature for 20 minutes.
Thereafter, the culture medium in the 6-well plate was replaced with 2 ml of Opti-MEM I media, and 500 μl of the final mixture was added to each well of the 6-well plate, followed by cultivation at 37° C. for 4 to 6 hours. The medium was replaced with the original culture medium (DMEM/F12 medium supplemented with 10% FBS), followed by further cultivation overnight. […]

B1: modified GS protein: hamster glutamine synthetase (SEQ ID NO. 4) with glycine at position 299 substituted with arginine (protein, listed as Cricetulus longicaudatus)
chain: MATSASSHLNKNIKQMYLCLPQGEKVQAMYIWVDGTGEGLRCKTRTLDCEPKCVEELPEWNFDGSSTFQSEGSNSDMYLSPVAMFRDPFRRDPNKLVFCEVFKYNRKPAETNLRHSCKRIMDMVSNQHPWFGMEQEYTLMGTDGHPFGWPSNGFPGPQGPYYCGVGADKAYGRDIVEAHYRACLYAGVKITGTNAEVMPAQWEFQIGPCEGIRMGDHLWVARFILHRVCEDFGVIATFDPKPIPGNWNGAGCHTNFSTKAMREENGLKHIEEAIEKLSKRHRYHIRAYDPKGGLDNARRLTGFHETSNINDFSAGVANRSASIRIPRTVGQEKKGYFEDRRPSANCDPFAVTEAIVRTCLLNETGDEPFQYKN
B1 was tested, and the “sensitivity to GS inhibitors compared with wildtype GS protein” value was “enhanced sensitivity”.
